Data on 3 molecules can be found in publication PMC12608094, “STN1 Shields CTC1 From TRIM32‐Mediated Ubiquitination to Prevent Cellular Aging” (Aging Cell, 2025).

For test [1], the target named is T1, Flag-tagged CTC1 (wild type) (human, UniProt Q2NKJ3 1-1217).
T1 sequence (looked up): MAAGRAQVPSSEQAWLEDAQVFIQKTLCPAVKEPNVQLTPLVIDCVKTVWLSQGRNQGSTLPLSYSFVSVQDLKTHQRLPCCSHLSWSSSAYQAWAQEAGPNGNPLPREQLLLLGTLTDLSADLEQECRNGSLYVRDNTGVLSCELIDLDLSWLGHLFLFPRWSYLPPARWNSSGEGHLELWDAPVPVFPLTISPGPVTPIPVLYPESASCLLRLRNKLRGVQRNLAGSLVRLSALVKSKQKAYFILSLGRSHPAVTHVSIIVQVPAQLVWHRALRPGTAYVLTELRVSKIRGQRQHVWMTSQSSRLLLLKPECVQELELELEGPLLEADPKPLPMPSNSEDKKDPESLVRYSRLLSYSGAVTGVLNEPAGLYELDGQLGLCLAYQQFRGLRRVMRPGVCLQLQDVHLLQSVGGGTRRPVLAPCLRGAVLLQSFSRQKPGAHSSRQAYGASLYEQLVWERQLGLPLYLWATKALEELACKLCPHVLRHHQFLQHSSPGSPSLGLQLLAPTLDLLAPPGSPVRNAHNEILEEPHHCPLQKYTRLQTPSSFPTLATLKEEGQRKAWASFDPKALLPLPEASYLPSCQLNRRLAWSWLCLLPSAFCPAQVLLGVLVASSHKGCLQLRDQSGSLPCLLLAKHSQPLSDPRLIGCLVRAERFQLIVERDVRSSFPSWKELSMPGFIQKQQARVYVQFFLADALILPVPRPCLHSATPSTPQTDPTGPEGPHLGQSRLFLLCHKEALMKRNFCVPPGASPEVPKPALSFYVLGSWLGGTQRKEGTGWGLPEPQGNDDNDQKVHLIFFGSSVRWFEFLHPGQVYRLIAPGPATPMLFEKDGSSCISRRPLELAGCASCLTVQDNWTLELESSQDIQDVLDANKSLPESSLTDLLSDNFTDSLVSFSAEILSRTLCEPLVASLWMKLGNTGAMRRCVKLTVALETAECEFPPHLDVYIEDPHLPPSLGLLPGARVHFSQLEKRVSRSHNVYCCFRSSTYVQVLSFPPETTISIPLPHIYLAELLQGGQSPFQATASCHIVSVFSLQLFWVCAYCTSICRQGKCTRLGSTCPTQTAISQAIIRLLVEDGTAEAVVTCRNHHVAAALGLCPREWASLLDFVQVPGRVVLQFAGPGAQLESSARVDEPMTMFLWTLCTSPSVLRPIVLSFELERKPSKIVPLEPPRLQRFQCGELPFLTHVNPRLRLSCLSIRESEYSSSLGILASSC

For test [2], the target named is T1, Flag-tagged CTC1 (wild type). The test can be described thus: cell-based or functional assay.

As for “HA-tagged STN1 OB (N-terminal half-truncation) (domain or fragment)”, the half-life of Flag-CTC1 in HEK293T cells (CHX chase over 12 h) with HA-STN1OB in test [1] amounted to 8 h.
Turning to “HA-tagged STN1 wHTH (C-terminal half-truncation) (domain or fragment)”, the half-life of Flag-CTC1 in HEK293T cells (CHX chase over 12 h) with HA-STN1 wHTH in test [1] was determined as 5 h.

B1: HA-tagged STN1 (wild type) (natural protein, human, UniProt Q9H668 1-368, looked up)
chain: MQPGSSRCEEETPSLLWGLDPVFLAFAKLYIRDILDMKESRQVPGVFLYNGHPIKQVDVLGTVIGVRERDAFYSYGVDDSTGVINCICWKKLNTESVSAAPSAARELSLTSQLKKLQETIEQKTKIEIGDTIRVRGSIRTYREEREIHATTYYKVDDPVWNIQIARMLELPTIYRKVYDQPFHSSALEKEEALSNPGALDLPSLTSLLSEKAKEFLMENRVQSFYQQELEMVESLLSLANQPVIHSASSDQVNFKKDTTSKAIHSIFKNAIQLLQEKGLVFQKDDGFDNLYYVTREDKDLHRKIHRIIQQDCQKPNHMEKGCHFLHILACARLSIRPGLSEAVLQQVLELLEDQSDIVSTMEHYYTAF
Consider B1, for which the “half-life of Flag-CTC1 in HEK293T cells (CHX chase over 12 h) with HA-STN1 WT” value in test [2] was determined as 10 h.
